Tests used:
[1] = target: T1, AGT-Ma (S81L-Ma homodimer) (Homo sapiens, UniProt P21549, S81L); experiment: CD signal change at […] nm on PLP titration of apoenzyme; type: binding
T1 sequence (P21549 1-392 S81L): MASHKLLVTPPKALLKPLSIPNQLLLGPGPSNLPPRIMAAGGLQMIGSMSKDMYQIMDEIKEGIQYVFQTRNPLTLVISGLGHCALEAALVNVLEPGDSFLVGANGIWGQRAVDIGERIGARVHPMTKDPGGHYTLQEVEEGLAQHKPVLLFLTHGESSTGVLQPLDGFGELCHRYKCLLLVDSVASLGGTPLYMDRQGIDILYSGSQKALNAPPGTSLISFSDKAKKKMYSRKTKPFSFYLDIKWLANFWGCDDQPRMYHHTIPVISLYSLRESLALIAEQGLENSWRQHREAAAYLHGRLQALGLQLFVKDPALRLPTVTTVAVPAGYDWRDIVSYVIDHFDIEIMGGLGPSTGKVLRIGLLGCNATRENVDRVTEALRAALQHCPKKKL

[2] = substrate: C[C@H](N)C(=O)O; experiment: pyruvate formation, lactate dehydrogenase-coupled spectrophotometric assay; type: biochemical, Homo sapiens; settings: saturating glyoxylate, 200 μM PLP, 100 mM potassium phosphate, 25°C
[3] = substrate: O=CC(=O)O; experiment: as above; type: biochemical, Homo sapiens; settings: saturating L-alanine, 200 μM PLP, 100 mM potassium phosphate, 25°C

Cc1ncc(COP(=O)(O)O)c(C=O)c1O [PLP]
Kd [1]: 17 ± 3 µM

B1: AGT-Ma (S81L-Ma homodimer) (Homo sapiens; S81L) (protein)
chain: MASHKLLVTPPKALLKPLSIPNQLLLGPGPSNLPPRIMAAGGLQMIGSMSKDMYQIMDEIKEGIQYVFQTRNPLTLVISGLGHCALEAALVNVLEPGDSFLVGANGIWGQRAVDIGERIGARVHPMTKDPGGHYTLQEVEEGLAQHKPVLLFLTHGESSTGVLQPLDGFGELCHRYKCLLLVDSVASLGGTPLYMDRQGIDILYSGSQKALNAPPGTSLISFSDKAKKKMYSRKTKPFSFYLDIKWLANFWGCDDQPRMYHHTIPVISLYSLRESLALIAEQGLENSWRQHREAAAYLHGRLQALGLQLFVKDPALRLPTVTTVAVPAGYDWRDIVSYVIDHFDIEIMGGLGPSTGKVLRIGLLGCNATRENVDRVTEALRAALQHCPKKKL
kcat [2]: 13.9 ± 0.9 s⁻¹
Km [3]: 0.16 ± 0.02 mM
kcat [3]: 13.9 ± 0.9 s⁻¹

Source: article PMC4204775 (Human Molecular Genetics, 2014)
